We go through 5 molecules from patent US20100285005A1 (Eli Lilly, published 2010).

Changes are numbered by the printed parent chain. A value given as a limit tells only on which side of the number the result lay.

In assay [1] the target is human CXCR4 receptor with a C-terminal linear C9 peptide tag (human). As to the kind of experiment: SPR (Biacore 2000), C9-tagged CXCR4 captured by 1D4 antibody, antibody injected, 4 °C. For orientation: In SPR one partner is held on a chip, and binding of the other changes the refractive index at the surface.
Assay [2] has as its target T1, human CXCR4, endogenous on human cells (CCRF-CEM leukemia cells; U937 histiocytic lymphoma cells) (human, UniProt P61073 1-352).
T1 construct: whole, on cells
As to the kind of experiment: inhibition of 125I-SDF-1α binding to CCRF-CEM cells expressing endogenous CXCR4 (SPA); antibody III's own average value. The method, then: SDF-1 binding to CXCR4 is the first step in activating the CXCR4 intracellular signaling pathway. To determine if an antibody can block the interaction of SDF-1 and CXCR4, human leukemia CCRF-CEM cells expressing endogenous CXCR4 are used in an ¹²⁵I-labeled SDF-1α binding assay. The assay is performed in a 96-well U-bottom, non-treated polystyrene plate. The binding assay buffer is prepared with RPMI 1640 medium containing 10 mM N-2-hydroxyethylpiperazine-N′-2-ethanesulfonic acid (HEPES), pH 7.5, and 0.2% bovine serum albumin (BSA). Briefly, 200 μL reaction mixtures containing 300 pM ligand (60 pM ¹²⁵I-SDF-1α and 240 pM cold SDF-1α), different concentrations of the test antibody in assay buffer, 100,000 human CCRF-CEM cells, and 0.5 mg scintillation proximity assay (SPA) beads are incubated at room temperature for 2 hours. Plates are then counted in a liquid scintillation and luminescence counter in SPA mode. CXCR4 antagonists decrease the bound radioactivity in this assay in a dose-dependent manner. The inhibitory potency (IC₅₀) of a test antibody is calculated using GraphPad Prism software, based on the dose-dependent decrease of bound radioactivity.

Assay [3] has as its target T1, human CXCR4, endogenous on human cells …. As to the kind of experiment: cell-based or functional assay.

T1 sequence (P61073 whole entry): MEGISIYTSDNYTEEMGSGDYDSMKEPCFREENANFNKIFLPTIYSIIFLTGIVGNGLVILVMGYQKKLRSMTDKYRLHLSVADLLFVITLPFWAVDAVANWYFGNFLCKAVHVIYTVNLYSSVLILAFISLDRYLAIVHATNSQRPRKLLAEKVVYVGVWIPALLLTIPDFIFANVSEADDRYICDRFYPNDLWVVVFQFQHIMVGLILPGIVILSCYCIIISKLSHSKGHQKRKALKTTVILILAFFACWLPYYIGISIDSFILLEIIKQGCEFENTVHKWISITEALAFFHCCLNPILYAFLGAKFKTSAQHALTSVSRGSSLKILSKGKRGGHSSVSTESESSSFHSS

B1: Antibody III (antibody, human IgG4 S228P, kappa, F234A L235A, V domains shown)
VH: EVQLVESGGGLVQPGGSLRLSCAASGFTSTDYYFSWVRQAPGKGLEWVGFIRYKSKGYTTEYSGSVKGRFTISRDDSKNSLYLQMNSLKTEDTAVYYCAREPITTDPRDYWGQGTLVTVSS
VL: DIVMTQSPDSLAVSLGERATINCKSSQSLFNSRTRKKYLAWYQQKPGQPPKLLIYWASKRKSGVPDRFSGSGSGTDFTLTISSLQAEDVAVYYCKQSRFLRAFGQGTKLEIKR
notes: Human engineered anti-CXCR4 antibody; also called the antibody III
Consider B1, for which, in assay [1], the Kd (commonly the equilibrium constant for the complex coming apart) was 1.54 nM; the koff (as a rule, a measure of how fast the partners let go of each other) came to 0.00172 s⁻¹; the kon (usually the second-order rate constant of association) came to 1.12e+06 M⁻¹ s⁻¹. Also, in assay [2], the IC50 (in general, the midpoint of a concentration-inhibition curve) turned out to be 0.45 nM.

B2: Antibody V (antibody, human IgG4 S228P, kappa, F234A L235A, V domains shown)
VH: B1 VH with Y53H
VL: B1 VL
In assay [1], B2 registered a Kd of 0.88 nM, a koff of 0.00168 s⁻¹ and a kon of 1.91e+06 M⁻¹ s⁻¹. For the same molecule, the “IC50, chemotaxis assay (SDF-1α-driven migration of U937 cells)” value (“IC50, chemotaxis assay” below) in assay [3] is no more than 30 nM.

B3: Antibody I (antibody, human IgG4 S228P, kappa, F234A L235A, V domains shown)
VH: B1 VH with Y53T
VL: B1 VL
Take B3: in assay [1], the Kd stood at 0.68 nM, the koff was 0.00161 s⁻¹ and the kon is 2.36e+06 M⁻¹ s⁻¹. Also, the “IC50, chemotaxis assay” value in assay [3] is no more than 30 nM.

B4: Antibody II (antibody, human IgG4 S228P, kappa, F234A L235A, V domains shown)
VH: B1 VH with Y53S
VL: B1 VL
In assay [1], B4 showed a Kd of 0.72 nM, a koff of 0.00181 s⁻¹ and a kon of 2.5e+06 M⁻¹ s⁻¹. In addition, the “IC50, chemotaxis assay” value in assay [3] is no more than 30 nM.

B5: Antibody IV (antibody, human IgG4 S228P, kappa, F234A L235A, V domains shown)
VH: B1 VH with Y53N, S55R
VL: B1 VL
As for B5, in assay [1], the Kd was determined as 5.14 nM, the koff turned out to be 0.00398 s⁻¹ and the kon is 774000 M⁻¹ s⁻¹. Also, the “IC50, chemotaxis assay” value in assay [3] is no more than 30 nM.
